Source: the supplement of paper PMC5998384

Experiments:
HeLa Kyoto [1] = test: solubility in G1/S (NP-40 vs SDS abundance) (log2 ratio); higher = more soluble; conditions: cell cycle stage: G1/S
HeLa Kyoto [2] = test: melting temperature (median over replicates), in situ; higher = more thermally stable
HeLa Kyoto [3] = test: solubility change mitosis vs G1/S (difference of NP-40 vs SDS log2 ratios) (log2 ratio difference); higher = more soluble in mitosis
HeLa Kyoto [4] = test: thermal stability score vs G1/S (z-score of summed log2 fold changes over temperatures); higher = more thermally stable than in G1/S
[5] = cell cycle stage: early G1 (4.5 h after nocodazole release)
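Wherever melting temperature (median over replicates), in situ is given: HeLa Kyoto cells synchronized by double thymidine or nocodazole block, proteins quantified by TMT10plex mass spectrometry, three independent biological replicates.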
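Wherever solubility change mitosis vs G1/S (difference of NP-40 vs SDS log2 ratios) is given: synchronized HeLa Kyoto cells (double thymidine block for G1/S, nocodazole release for mitosis), protein amounts in NP-40 versus SDS lysates quantified by mass spectrometry, three biological replicates.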
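Wherever solubility in G1/S (NP-40 vs SDS abundance) is given: HeLa Kyoto cells arrested at G1/S by double thymidine block, proteins quantified by TMT10plex mass spectrometry in mild NP-40 versus SDS extracts, three biological replicates.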
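Wherever thermal stability score vs G1/S (z-score of summed log2 fold changes over temperatures) is given: synchronized HeLa Kyoto cells, proteins quantified by TMT10plex mass spectrometry, three biological replicates, mitosis taken 0.5 h after nocodazole release, G1/S directly after double thymidine block.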

Sequence	solubility in G1/S (log2) (HeLa Kyoto [1])	melting temperature (HeLa Kyoto [2]; cell cycle stage: G1/S) [°C]	melting temperature (HeLa Kyoto [2]; cell cycle stage: mitosis) [°C]	solubility change mitosis (log2) (HeLa Kyoto [3])	thermal stability score (HeLa Kyoto [4]; [5])	thermal stability score (HeLa Kyoto [4]; cell cycle stage: mitosis)
MPPRRSIVEVKVLDVQKRRVPNKHYVYIIRVTWSSGSTEAIYRRYSKFFDLQMQMLDKFPMEGGQKDPKQRIIPFLPGKILFRRSHIRDVAVKRLIPIDEYCKALIQLPPYISQCDEVLQFFETRPEDLNPPKEEHIGKKKSGGDQTSVDPMVLEQYVVVANYQKQESSEISLSVGQVVDIIEKNESGWWFVSTAEEQGWVPATCLEGQDGVQDEFSLQPEEEEKYTVIYPYTARDQDEMNLERGAVVEVIQKNLEGWWKIRYQGKEGWAPASYLKKNSGEPLPPKPGPGSPSHPGALDLDGVSRQQNAVGREKELLSSQRDGRFEGRPVPDGDAKQRSPKMRQRPPPRRDMTIPRGLNLPKPPIPPQVEEEYYTIAEFQTTIPDGISFQAGLKVEVIEKNLSGWWYIQIEDKEGWAPATFIDKYKKTSNASRPNFLAPLPHEVTQLRLGEAAALENNTGSEATGPSRPLPDAPHGVMDSGLPWSKDWKGSKDVLRKASSDMSASAGYEEISDPDMEEKPSLPPRKESIIKSEGELLERERERQRTEQLRGPTPKPPGVILPMMPAKHIPPARDSRRPEPKPDKSRLFQLKNDMGLECGHKVLAKEVKKPNLRPISKSKTDLPEEKPDATPQNPFLKSRPQVRPKPAPSPKTEPPQGEDQVDICNLRSKLRPAKSQDKSLLDGEGPQAVGGQDVAFSRSFLPGEGPGRAQDRTGKQDGLSPKEISCRAPPRPAKTTDPVSKSVPVPLQEAPQQRPVVPPRRPPPPKKTSSSSRPLPEVRGPQCEGHESRAAPTPGRALLVPPKAKPFLSNSLGGQDDTRGKGSLGPWGTGKIGENREKAAAASVPNADGLKDSLYVAVADFEGDKDTSSFQEGTVFEVREKNSSGWWFCQVLSGAPSWEGWIPSNYLRKKP [SH3PXD2B]	-0.0158	48.9	49.9	-0.129	-0.513	0.253
MPSSPLRVAVVCSSNQNRSMEAHNILSKRGFSVRSFGTGTHVKLPGPAPDKPNVYDFKTTYDQMYNDLLRKDKELYTQNGILHMLDRNKRIKPRPERFQNCKDLFDLILTCEERVYDQVVEDLNSREQETCQPVHVVNVDIQDNHEEATLGAFLICELCQCIQHTEDMENEIDELLQEFEEKSGRTFLHTVCFY [SSU72]	0.4	48.1	49.4	-0.0234	0.263	-0.182
MPSTNRAGSLKDPEIAELFFKEDPEKLFTDLREIGHGSFGAVYFARDVRTNEVVAIKKMSYSGKQSTEKWQDIIKEVKFLQRIKHPNSIEYKGCYLREHTAWLVMEYCLGSASDLLEVHKKPLQEVEIAAITHGALQGLAYLHSHTMIHRDIKAGNILLTEPGQVKLADFGSASMASPANSFVGTPYWMAPEVILAMDEGQYDGKVDVWSLGITCIELAERKPPLFNMNAMSALYHIAQNESPTLQSNEWSDYFRNFVDSCLQKIPQDRPTSEELLKHIFVLRERPETVLIDLIQRTKDAVRELDNLQYRKMKKLLFQEAHNGPAVEAQEEEEEQDHGVGRTGTVNSVGSNQSIPSMSISASSQSSSVNSLPDVSDDKSELDMMEGDHTVMSNSSVIHLKPEEENYREEGDPRTRASDPQSPPQVSRHKSHYRNREHFATIRTASLVTRQMQEHEQDSELREQMSGYKRMRRQHQKQLMTLENKLKAEMDEHRLRLDKDLETQRNNFAAEMEKLIKKHQAAMEKEAKVMSNEEKKFQQHIQAQQKKELNSFLESQKREYKLRKEQLKEELNENQSTPKKEKQEWLSKQKENIQHFQAEEEANLLRRQRQYLELECRRFKRRMLLGRHNLEQDLVREELNKRQTQKDLEHAMLLRQHESMQELEFRHLNTIQKMRCELIRLQHQTELTNQLEYNKRRERELRRKHVMEVRQQPKSLKSKELQIKKQFQDTCKIQTRQYKALRNHLLETTPKSEHKAVLKRLKEEQTRKLAILAEQYDHSINEMLSTQALRLDEAQEAECQVLKMQLQQELELLNAYQSKIKMQAEAQHDRELRELEQRVSLRRALLEQKIEEEMLALQNERTERIRSLLERQAREIEAFDSESMRLGFSNMVLSNLSPEAFSHSYPGASGWSHNPTGGPGPHWGHPMGGPPQAWGHPMQGGPQPWGHPSGPMQGVPRGSSMGVRNSPQALRRTASGGRTEQGMSRSTSVTSQISNGSHMSYT [TAOK1]	0.0325	51.7	50.8	-0.0943	0.109	-0.35
MPTQRDSSTMSHTVAGGGSGDHSHQVRVKAYYRGDIMITHFEPSISFEGLCNEVRDMCSFDNEQLFTMKWIDEEGDPCTVSSQLELEEAFRLYELNKDSELLIHVFPCVPERPGMPCPGEDKSIYRRGARRWRKLYCANGHTFQAKRFNRRAHCAICTDRIWGLGRQGYKCINCKLLVHKKCHKLVTIECGRHSLPQEPVMPMDQSSMHSDHAQTVIPYNPSSHESLDQVGEEKEAMNTRESGKASSSLGLQDFDLLRVIGRGSYAKVLLVRLKKTDRIYAMKVVKKELVNDDEDIDWVQTEKHVFEQASNHPFLVGLHSCFQTESRLFFVIEYVNGGDLMFHMQRQRKLPEEHARFYSAEISLALNYLHERGIIYRDLKLDNVLLDSEGHIKLTDYGMCKEGLRPGDTTSTFCGTPNYIAPEILRGEDYGFSVDWWALGVLMFEMMAGRSPFDIVGSSDNPDQNTEDYLFQVILEKQIRIPRSLSVKAASVLKSFLNKDPKERLGCHPQTGFADIQGHPFFRNVDWDMMEQKQVVPPFKPNISGEFGLDNFDSQFTNEPVQLTPDDDDIVRKIDQSEFEGFEYINPLLMSAEECV [PRKCI]	-0.127	50.7	51	-0.129	0.877	0.84
MPTTIEREFEELDTQRRWQPLYLEIRNESHDYPHRVAKFPENRNRNRYRDVSPYDHSRVKLQNAENDYINASLVDIEEAQRSYILTQGPLPNTCCHFWLMVWQQKTKAVVMLNRIVEKESVKCAQYWPTDDQEMLFKETGFSVKLLSEDVKSYYTVHLLQLENINSGETRTISHFHYTTWPDFGVPESPASFLNFLFKVRESGSLNPDHGPAVIHCSAGIGRSGTFSLVDTCLVLMEKGDDINIKQVLLNMRKYRMGLIQTPDQLRFSYMAIIEGAKCIKGDSSIQKRWKELSKEDLSPAFDHSPNKIMTEKYNGNRIGLEEEKLTGDRCTGLSSKMQDTMEENSESALRKRIREDRKATTAQKVQQMKQRLNENERKRKRWLYWQPILTKMGFMSVILVGAFVGWTLFFQQNAL [PTPN2]	0.0769	49	49.2	-0.142	0.409	1.35
MPVVRKIFRRRRGDSESEEDEQDSEEVRLKLEETREVQNLRKRPNGVSAVALLVGEKVQEETTLVDDPFQMKTGGMVDMKKLKERGKDKISEEEDLHLGTSFSAETNRRDEDADMMKYIETELKKRKGIVEHEEQKVKPKNAEDCLYELPENIRVSSAKKTEEMLSNQMLSGIPEVDLGIDAKIKNIISTEDAKARLLAEQQNKKKDSETSFVPTNMAVNYVQHNRFYHEELNAPIRRNKEEPKARPLRVGDTEKPEPERSPPNRKRPANEKATDDYHYEKFKKMNRRY [C9ORF78]	0.501	57.3	55.1	0.0516	-2.13	-4.34
MQANGAGGGGGGGGGGGGGGGGGGGQGQTPELACLSAQNGESSPSSSSSAGDLAHANGLLPSAPSAASNNSNSLNVNNGVPGGAAAASSATVAAASATTAASSSLATPELGSSLKKKKRLSQSDEDVIRLIGQHLNGLGLNQTVDLLMQESGCRLEHPSATKFRNHVMEGDWDKAENDLNELKPLVHSPHAIVVRGALEISQTLLGIIVRMKFLLLQQKYLEYLEDGKVLEALQVLRCELTPLKYNTERIHVLSGYLMCSHAEDLRAKAEWEGKGTASRSKLLDKLQTYLPPSVMLPPRRLQTLLRQAVELQRDRCLYHNTKLDNNLDSVSLLIDHVCSRRQFPCYTQQILTEHCNEVWFCKFSNDGTKLATGSKDTTVIIWQVDPDTHLLKLLKTLEGHAYGVSYIAWSPDDNYLVACGPDDCSELWLWNVQTGELRTKMSQSHEDSLTSVAWNPDGKRFVTGGQRGQFYQCDLDGNLLDSWEGVRVQCLWCLSDGKTVLASDTHQRIRGYNFEDLTDRNIVQEDHPIMSFTISKNGRLALLNVATQGVHLWDLQDRVLVRKYQGVTQGFYTIHSCFGGHNEDFIASGSEDHKVYIWHKRSELPIAELTGHTRTVNCVSWNPQIPSMMASASDDGTVRIWGPAPFIDHQNIEEECSSMDS [WDR26]	-0.108	52.1	50.7	-0.151	0.266	0.763
MQDGNFLLSALQPEAGVCSLALPSDLQLDRRGAEGPEAERLRAARVQEQVRARLLQLGQQPRHNGAAEPEPEAETARGTSRGQYHTLQAGFSSRSQGLSGDKTSGFRPIAKPAYSPASWSSRSAVDLSCSRRLSSAHNGGSAFGAAGYGGAQPTPPMPTRPVSFHERGGVGSRADYDTLSLRSLRLGPGGLDDRYSLVSEQLEPAATSTYRAFAYERQASSSSSRAGGLDWPEATEVSPSRTIRAPAVRTLQRFQSSHRSRGVGGAVPGAVLEPVARAPSVRSLSLSLADSGHLPDVHGFNSYGSHRTLQRLSSGFDDIDLPSAVKYLMASDPNLQVLGAAYIQHKCYSDAAAKKQARSLQAVPRLVKLFNHANQEVQRHATGAMRNLIYDNADNKLALVEENGIFELLRTLREQDDELRKNVTGILWNLSSSDHLKDRLARDTLEQLTDLVLSPLSGAGGPPLIQQNASEAEIFYNATGFLRNLSSASQATRQKMRECHGLVDALVTSINHALDAGKCEDKSVENAVCVLRNLSYRLYDEMPPSALQRLEGRGRRDLAGAPPGEVVGCFTPQSRRLRELPLAADALTFAEVSKDPKGLEWLWSPQIVGLYNRLLQRCELNRHTTEAAAGALQNITAGDRRWAGVLSRLALEQERILNPLLDRVRTADHHQLRSLTGLIRNLSRNARNKDEMSTKVVSHLIEKLPGSVGEKSPPAEVLVNIIAVLNNLVVASPIAARDLLYFDGLRKLIFIKKKRDSPDSEKSSRAASSLLANLWQYNKLHRDFRAKGYRKEDFLGP [PKP3]	-0.223	50.1	48.3	0.099	-0.69	-0.255
MQEKDASSQGFLPHFQHFATQAIHVGQDPEQWTSRAVVPPISLSTTFKQGAPGQHSGFEYSRSGNPTRNCLEKAVAALDGAKYCLAFASGLAATVTITHLLKAGDQIICMDDVYGGTNRYFRQVASEFGLKISFVDCSKIKLLEAAITPETKLVWIETPTNPTQKVIDIEGCAHIVHKHGDIILVVDNTFMSPYFQRPLALGADISMYSATKYMNGHSDVVMGLVSVNCESLHNRLRFLQNSLGAVPSPIDCYLCNRGLKTLHVRMEKHFKNGMAVAQFLESNPWVEKVIYPGLPSHPQHELVKRQCTGCTGMVTFYIKGTLQHAEIFLKNLKLFTLAESLGGFESLAELPAIMTHASVLKNDRDVLGISDTLIRLSVGLEDEEDLLEDLDQALKAAHPPSGSHS [CTH]	0.283	59	58.5	-0.134	-1.76	-0.741
MQGPPRSLRAGLSLDDFIPGHLQSHIGSSSRGTRVPVIRNGGSNTLNFQFHDPAPRTVCNGGYTPRRDASQHPDPAWYQTWPGPGSKPSASTKIPASQHTQNWSATWTKDSKRRDKRWVKYEGIGPVDESGMPIAPRSSVDRPRDWYRRMFQQIHRKMPDLQLDWTFEEPPRDPRHLGAQQRPAHRPGPATSSSGRSWDHSEELPRSTFNYRPGAFSTVLQPSNQVLRRREKVDNVWTEESWNQFLQELETGQRPKKPLVDDPGEKPSQPIEVLLERELAELSAELDKDLRAIETRLPSPKSSPAPRRAPEQRPPAGPASAWSSSYPHAPYLGSARSLSPHKMADGGSPFLGRRDFVYPSSTRDPSASNGGGSPARREEKKRKAARLKFDFQAQSPKELTLQKGDIVYIHKEVDKNWLEGEHHGRLGIFPANYVEVLPADEIPKPIKPPTYQVLEYGEAVAQYTFKGDLEVELSFRKGEHICLIRKVNENWYEGRITGTGRQGIFPASYVQVSREPRLRLCDDGPQLPTSPRLTAAARSARHPSSPSALRSPADPIDLGGQTSPRRTGFSFPTQEPRPQTQNLGTPGPALSHSRGPSHPLDLGTSSPNTSQIHWTPYRAMYQYRPQNEDELELREGDRVDVMQQCDDGWFVGVSRRTQKFGTFPGNYVAPV [SORBS3]	0.169	51.2	52	-0.0255	-0.822	0.186
